From the RNAGym collection of RNA variant scans (doi:10.7554/elife.80360) come the findings set out here.

To fix the notation:
B1: HDV Ribozyme (parent)
chain: GGCCGGCAUGGUCCCAGCCUCCUCGCUGGCGCCGGCUGGGCAACAUUCCGAGGGGACCGUCCCCUCGGUAAUGGCGAAUGGGACCCA

This data set covers variants of B1. Nature of the data set: self-cleavage, relative activity (ratio to wild type); higher = more cleavage; co-transcriptional.
For G25A C66U, the self-cleavage turned out to be 0.338.
Under G25U C58A stands 0.244; under G25A G74A, 0.0767; under G25A G74U, 0.0583.
As to G25A G74C, the self-cleavage was 0.163.
Then G25U C85U, with 0.415; and G25C G50C, with 0.156.
With G25U A87G, the self-cleavage stood at 0.163.
Then G25A G73U, with 0.0702; and G25A G73A, with 0.0583; and C24U G53A, with 0.87.
Regarding C24U G53U, the self-cleavage was determined as 0.802.
Turning to G25C C85U, the self-cleavage came to 0.
Then G25C C85G, with 0.125; and G25C C86U, with 0.104; and G25C C86A, with 0.128.
Under G25C G55C stands 0.106.
Under G25A A87C stands 0.183.
With C24U C84G, the self-cleavage worked out at 0.157.
Then C24U C84A, with 0.543.
Then G25U C44G, with 0.249.
Then C24U G40C, with 0.138; and G25U G29C, with 0.106.
As for G25C A83G, the self-cleavage stood at 0.0302.
Under G25C A83C stands 0.0489.
Under G25C U65C stands 0.0536.
Under G25U G35U stands 0.147; under C24U G25U, 0.138; under G25A G80A, 0.126.
As to G25A G80U, the self-cleavage amounted to 0.0923.
Then G25A G80C, with 0.12.
Then G25U A51C, with 0.135; and G25U A51G, with 0.266; and G25U A45C, with 0.0831.
Under G25U A45G stands 0.401; under G25A A56U, 0.111; under G25A A56C, 0.325.
With G25A A56G, the self-cleavage stood at 0.227.
Under G25U C30U stands 0.102; under C24U C36A, 0.0256; under G25A G59C, 0.332.
Then C24U C44A, with 0.277; and C24U C49G, with 0.536; and C24U C49A, with 0.739.
Take G25A A71U: the self-cleavage was found to be 0.0369.
Under G25A A71C stands 0.185; under G25A G38A, 0.0536; under G25A C33U, 0.0911.
Under G25A U79G stands 0.
Under G25A U65G stands 0.269; under G25A U65A, 0.122; under G25C C75G, 0.185.
For the variant G25C C75U, the self-cleavage worked out at 0.
Then G25U C84A, with 0.222; and G25U C84G, with 0.17.
Then G25U C84U, with 0.262; and G25A C30G, with 0.
Then G25A C30A, with 0.126; and G25C U46G, with 0.
As for G25C U46C, the self-cleavage came out at 0.0875.
In the case of C24U G28U, the self-cleavage was 0.119.
Under C24U G76A stands 0.59.
C24U G76C: the self-cleavage came out at 0.997.
Under G25C G29A stands 0.155; under G25U A43G, 0.0573.
Take G25U A43U: the self-cleavage came out at 0.0707.
Under G25U A43C stands 0.147; under C24U G74C, 0.332; under C24U G74A, 0.0639.
Under G25C A56G stands 0.161; under G25C A56U, 0.178; under G25C A56C, 0.115.
Then G25C U27A, with 0.175.
Turning to G25C C48A, the self-cleavage is 0.0415.
Under G25U A56G stands 0.0554; under G25U A56C, 0.122; under G25U A56U, 0.249.
Consider G25A C32G, for which the self-cleavage worked out at 0.0623.
Regarding G25C C64A, the self-cleavage was 0.203.
Under G25C C64U stands 0.0369.
For the variant G25A C64A, the self-cleavage was 0.115.
On to C24U G29U, for which the self-cleavage stood at 0.0594.
Under C24U G29C stands 0.138.
Then G25C A43C, with 0.0554.
Then G25A G67U, with 0.401.
Take G25A G82A: the self-cleavage is 0.0978.
Under G25C G54U stands 0.0652; under G25C G54A, 0.219; under G25A G39C, 0.0332.
On to G25A G39U, for which the self-cleavage turned out to be 0.0244.
Under G25A G53U stands 0.179; under C24U G55A, 0.869; under C24U G55U, 0.698.
Then G25A G76A, with 0.203; and G25A G76U, with 0.3; and G25U C49U, with 0.481.
Under G25U C49G stands 0; under G25U C49A, 0.175; under C24U G59U, 0.736.
On to C24U G59A, for which the self-cleavage turned out to be 0.623.
Then G25U A77G, with 0.145; and G25A U27C, with 0.538.
Then G25A U27G, with 0.133; and G25U A42C, with 0.135; and G25U A42U, with 0.173.
In the case of G25A G50C, the self-cleavage was 0.181.
Then G25C C66A, with 0.0627; and G25C G68C, with 0.0639.
Then G25C C26U, with 0.
Then C24U A78G, with 0.397.
For C24U C63U, the self-cleavage worked out at 0.726.
For C24U C63G, the self-cleavage was determined as 0.76.
Under C24U C30G stands 0.122; under C24U C30A, 0.0482; under C24U C30U, 0.142.
C24U G52A: the self-cleavage is 0.554.
Under C24U G54U stands 0.618.
Then C24U G54C, with 0.748; and C24U G54A, with 0.779.
Under C24U G34C stands 0.135; under C24U G34A, 0.0292.
As for G25C C62A, the self-cleavage came out at 0.18.
Under G25A C63G stands 0.237.
Then G25A G31A, with 0.0773; and G25A G31U, with 0.0536.
Under C24U C75G stands 0.119; under C24U G73A, 0.188.
As for G25A A42G, the self-cleavage came to 0.158.
With G25C C57U, the self-cleavage amounted to 0.219.
C24U G80U: the self-cleavage amounted to 0.102.
For the variant C24U G80A, the self-cleavage was found to be 0.0525.
In the case of G25A A43G, the self-cleavage worked out at 0.35.
Then G25A A43C, with 0; and C24U C57G, with 0.779.
Regarding C24U C57A, the self-cleavage amounted to 0.831.
Then C24U C57U, with 0.538; and C24U U47G, with 0.266.
Then C24U U47A, with 0.658.
Then G25C C33G, with 0.201; and G25C A70U, with 0.0898; and G25C A70C, with 0.0639.
As to C24U A87U, the self-cleavage turned out to be 0.696.
Take G25A G40C: the self-cleavage came out at 0.0959.
Under G25A G40A stands 0.317; under G25C G28A, 0.0297.
With G25A C85G, the self-cleavage was 0.237.
Under G25A C85A stands 0.237; under G25A C85U, 0.32.
Then G25U C26A, with 0.217; and C24U G82C, with 0.163; and C24U G82U, with 0.0692.
Then G25C G76U, with 0.0852; and G25C G76A, with 0.0875; and G25C G76C, with 0.0723.
As for G25C A45C, the self-cleavage came out at 0.0875.
In the case of G25C A45U, the self-cleavage came to 0.128.
As to G25U A70U, the self-cleavage was determined as 0.0852.
For G25U A70G, the self-cleavage was 0.0875.
Regarding G25A U60G, the self-cleavage amounted to 0.125.
Under G25U A83G stands 0.0978; under G25U A83U, 0.0791; under G25C U72C, 0.123.
For the variant G25C U72A, the self-cleavage came out at 0.0791.
Under G25C A71U stands 0.19; under G25C A71C, 0.0475; under G25A A78C, 0.0302.
Regarding G25A A78U, the self-cleavage amounted to 0.0346.
